Reference: paper PMC6242706 (Molecular Cell, 2018)

T1: Mouse UHRF1 (1-782), wild-type with the native N terminus (mouse, UniProt Q8VDF2 1-782)
T1 sequence: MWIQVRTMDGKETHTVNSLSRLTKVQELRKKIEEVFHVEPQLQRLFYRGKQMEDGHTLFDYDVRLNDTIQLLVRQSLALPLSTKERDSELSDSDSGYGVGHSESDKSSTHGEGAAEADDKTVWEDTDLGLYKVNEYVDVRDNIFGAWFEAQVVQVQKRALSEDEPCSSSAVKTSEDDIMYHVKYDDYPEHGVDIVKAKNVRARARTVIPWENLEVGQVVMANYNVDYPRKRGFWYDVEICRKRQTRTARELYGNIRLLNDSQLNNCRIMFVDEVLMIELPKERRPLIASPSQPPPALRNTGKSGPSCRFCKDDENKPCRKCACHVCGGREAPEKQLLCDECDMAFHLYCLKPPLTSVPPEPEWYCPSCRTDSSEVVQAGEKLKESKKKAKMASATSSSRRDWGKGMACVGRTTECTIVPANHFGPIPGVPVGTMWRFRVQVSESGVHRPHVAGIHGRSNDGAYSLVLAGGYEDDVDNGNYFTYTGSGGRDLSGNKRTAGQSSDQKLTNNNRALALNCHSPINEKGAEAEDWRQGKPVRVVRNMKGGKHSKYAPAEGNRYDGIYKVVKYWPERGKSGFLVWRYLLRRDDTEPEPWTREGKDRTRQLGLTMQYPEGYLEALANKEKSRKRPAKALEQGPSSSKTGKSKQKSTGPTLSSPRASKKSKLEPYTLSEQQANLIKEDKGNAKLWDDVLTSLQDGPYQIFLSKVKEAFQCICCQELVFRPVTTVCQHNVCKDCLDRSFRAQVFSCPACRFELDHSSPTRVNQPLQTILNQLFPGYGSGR

T2: Mouse UHRF1^ΔMW (3-782) (mouse, UniProt Q8VDF2 3-782)
T2 sequence: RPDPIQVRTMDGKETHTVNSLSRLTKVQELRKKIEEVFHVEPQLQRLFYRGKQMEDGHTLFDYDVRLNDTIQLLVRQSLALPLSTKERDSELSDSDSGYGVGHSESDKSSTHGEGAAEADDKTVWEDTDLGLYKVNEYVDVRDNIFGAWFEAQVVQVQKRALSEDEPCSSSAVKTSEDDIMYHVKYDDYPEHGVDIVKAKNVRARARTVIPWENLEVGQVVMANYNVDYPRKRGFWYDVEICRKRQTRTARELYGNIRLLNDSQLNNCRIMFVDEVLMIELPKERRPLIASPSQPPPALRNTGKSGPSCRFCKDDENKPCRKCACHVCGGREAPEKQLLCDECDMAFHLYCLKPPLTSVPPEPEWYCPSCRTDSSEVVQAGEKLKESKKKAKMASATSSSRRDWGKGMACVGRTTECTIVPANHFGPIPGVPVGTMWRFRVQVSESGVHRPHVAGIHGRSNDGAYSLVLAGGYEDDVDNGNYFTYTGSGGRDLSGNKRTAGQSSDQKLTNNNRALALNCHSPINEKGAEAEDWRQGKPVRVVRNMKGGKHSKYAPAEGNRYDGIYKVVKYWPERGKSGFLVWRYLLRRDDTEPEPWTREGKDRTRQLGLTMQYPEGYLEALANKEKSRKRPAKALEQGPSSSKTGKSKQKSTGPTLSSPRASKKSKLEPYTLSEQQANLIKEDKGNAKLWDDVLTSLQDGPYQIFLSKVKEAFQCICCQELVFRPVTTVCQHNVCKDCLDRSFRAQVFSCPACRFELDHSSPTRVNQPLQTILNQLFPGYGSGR

T3: Mouse UHRF1 (1-782) F46A point mutant (mouse, UniProt Q8VDF2 1-782, F46A)
T3 sequence: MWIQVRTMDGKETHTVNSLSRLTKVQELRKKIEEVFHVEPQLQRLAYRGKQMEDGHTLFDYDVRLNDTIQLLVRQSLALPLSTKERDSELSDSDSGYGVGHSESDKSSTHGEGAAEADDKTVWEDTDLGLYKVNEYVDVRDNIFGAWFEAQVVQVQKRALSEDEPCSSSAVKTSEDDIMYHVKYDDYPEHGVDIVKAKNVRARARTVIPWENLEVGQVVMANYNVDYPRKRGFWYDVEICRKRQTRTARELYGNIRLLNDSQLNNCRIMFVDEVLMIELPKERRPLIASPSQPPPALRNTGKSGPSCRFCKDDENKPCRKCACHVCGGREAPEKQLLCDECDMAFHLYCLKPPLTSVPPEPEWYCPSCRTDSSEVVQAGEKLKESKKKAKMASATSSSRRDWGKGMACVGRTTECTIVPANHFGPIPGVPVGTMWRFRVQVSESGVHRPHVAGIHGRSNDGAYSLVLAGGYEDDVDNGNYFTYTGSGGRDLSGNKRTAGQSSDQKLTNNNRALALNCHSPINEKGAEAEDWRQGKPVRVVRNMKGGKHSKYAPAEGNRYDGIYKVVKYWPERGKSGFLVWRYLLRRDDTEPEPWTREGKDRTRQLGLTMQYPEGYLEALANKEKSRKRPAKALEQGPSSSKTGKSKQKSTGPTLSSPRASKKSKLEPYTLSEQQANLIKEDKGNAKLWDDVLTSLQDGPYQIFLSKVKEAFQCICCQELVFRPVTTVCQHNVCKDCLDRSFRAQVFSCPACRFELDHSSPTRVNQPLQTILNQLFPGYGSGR


Assays:
[1] = target: T1, Mouse UHRF1 (1-782), wild-type with the …; assay: pull-down
Mouse UHRF1^ΔMW (3-782) [2] = target: T2, Mouse UHRF1^ΔMW (3-782); assay: pull-down
[3] = target: T3, Mouse UHRF1 (1-782) F46A point mutant; assay: pull-down
Mouse UHRF1^ΔMW (3-782) [4] = target: T2, Mouse UHRF1^ΔMW (3-782); assay: cross-linking
[5] = target: T1, Mouse UHRF1 (1-782), wild-type with the …; assay: cross-linking

| binding result [1] | binding result (Mouse UHRF1^ΔMW (3-782) [2]) | binding result [3] | binding result (Mouse UHRF1^ΔMW (3-782) [4]) | binding result [5] | Binder |
| --- | --- | --- | --- | --- | --- |
| binds | binds | binds |  |  | GST-UbcH5a (human UBE2D1, wild-type) (enzyme) not shown |
| binds |  |  |  |  | GST-UbcH5a S22R (human UBE2D1 S22R) (enzyme) not shown |
|  |  |  | binds | binds | UbcH5a (human UBE2D1), without GST (enzyme) not shown |
